Test results: patent US20180193477A1

Target: CD3 on human CD3+ Jurkat T cells (human) (UniProt P07766)
Experiment: cell-based or functional assay

CD3 on human CD3+ Jurkat T cells (human), sequence (P07766 23-207): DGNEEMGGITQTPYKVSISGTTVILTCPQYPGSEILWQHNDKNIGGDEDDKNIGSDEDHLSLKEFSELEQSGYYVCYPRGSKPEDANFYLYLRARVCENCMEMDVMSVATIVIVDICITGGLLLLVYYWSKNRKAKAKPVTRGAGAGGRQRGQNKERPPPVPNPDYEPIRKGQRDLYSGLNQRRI

EC50 (nM) of internalization of the pHAb conjugate, Jurkat cells (CD19-, CD3+): 13.2 nM | internalization of the pHAb conjugate by Jurkat cells: 2 nM
Substance: v2171, bivalent anti-CD3 pHAb conjugated mAb (UCHT1) (antibody)
